Source: patent publication US20230151091A1 (NEW YORK UNIVERSITY, published 2023)

Columns and labels:
[1] = molecular target: T1, mouse MuSK, endogenous (C2C12 myotubes; neuromuscular synapses of mice) (mouse, UniProt Q61006 22-868); experiment: cell-based or functional assay
T1 sequence (looked up): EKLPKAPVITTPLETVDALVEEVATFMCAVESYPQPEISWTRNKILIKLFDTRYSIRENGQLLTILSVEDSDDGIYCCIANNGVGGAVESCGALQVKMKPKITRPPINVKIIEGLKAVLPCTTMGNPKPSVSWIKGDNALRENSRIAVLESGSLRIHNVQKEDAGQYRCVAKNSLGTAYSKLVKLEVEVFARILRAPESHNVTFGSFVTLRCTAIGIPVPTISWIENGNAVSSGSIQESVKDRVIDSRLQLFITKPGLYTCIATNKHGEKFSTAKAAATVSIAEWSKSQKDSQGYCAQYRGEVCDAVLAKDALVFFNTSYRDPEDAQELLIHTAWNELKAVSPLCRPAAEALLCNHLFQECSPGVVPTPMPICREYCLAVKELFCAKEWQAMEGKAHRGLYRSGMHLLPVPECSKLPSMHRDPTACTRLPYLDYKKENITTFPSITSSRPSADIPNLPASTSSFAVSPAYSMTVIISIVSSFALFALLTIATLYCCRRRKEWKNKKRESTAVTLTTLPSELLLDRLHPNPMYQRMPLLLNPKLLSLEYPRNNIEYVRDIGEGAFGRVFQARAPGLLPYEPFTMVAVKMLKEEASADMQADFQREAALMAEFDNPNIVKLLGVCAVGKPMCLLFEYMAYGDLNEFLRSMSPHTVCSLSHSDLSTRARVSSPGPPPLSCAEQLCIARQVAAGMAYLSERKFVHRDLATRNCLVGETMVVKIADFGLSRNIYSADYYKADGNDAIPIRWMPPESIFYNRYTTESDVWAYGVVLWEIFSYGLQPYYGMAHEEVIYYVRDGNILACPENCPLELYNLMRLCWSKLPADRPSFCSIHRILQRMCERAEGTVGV

mouse MuSK = molecular target: T2, mouse MuSK (mouse, UniProt Q61006 22-494, limits assumed); experiment: Biacore, MuSK on chip (200RU), mAb dilution series
T2 construct: Coated on ELISA plates or on the Biacore chip; also called full length mouse MuSK; mouse MuSK (in house produced in HEK293 cells)
T2 sequence (looked up): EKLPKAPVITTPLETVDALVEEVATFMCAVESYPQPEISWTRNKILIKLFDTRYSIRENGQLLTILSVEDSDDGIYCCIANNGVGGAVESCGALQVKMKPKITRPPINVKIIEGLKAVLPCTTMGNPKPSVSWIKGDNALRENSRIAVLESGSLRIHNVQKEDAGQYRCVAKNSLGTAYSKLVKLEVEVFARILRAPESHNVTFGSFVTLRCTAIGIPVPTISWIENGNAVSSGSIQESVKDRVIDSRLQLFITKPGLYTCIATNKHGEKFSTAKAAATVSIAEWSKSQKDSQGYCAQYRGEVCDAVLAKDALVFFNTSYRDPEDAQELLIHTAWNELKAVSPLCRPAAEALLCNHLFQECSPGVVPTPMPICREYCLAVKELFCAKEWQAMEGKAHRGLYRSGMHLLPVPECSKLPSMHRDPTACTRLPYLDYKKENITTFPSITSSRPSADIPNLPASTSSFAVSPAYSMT
From the text: (§1) For affinity determination, a CMS chip was coated with either human or mouse MuSK (200RU) and a dilution series of the antibodies (mAbs and Fabs) was applied in order to be able to calculate the affinity.

human MuSK [2] = molecular target: T3, human MuSK (human, UniProt O15146 24-495); experiment: Biacore, MuSK on chip (200RU), mAb dilution series
T3 construct: Recombinant protein coated on ELISA plates (R&D Systems cat. 10189-MK) or on the Biacore chip; also called human muscle-specific tyrosine protein kinase; full length human MuSK
T3 sequence: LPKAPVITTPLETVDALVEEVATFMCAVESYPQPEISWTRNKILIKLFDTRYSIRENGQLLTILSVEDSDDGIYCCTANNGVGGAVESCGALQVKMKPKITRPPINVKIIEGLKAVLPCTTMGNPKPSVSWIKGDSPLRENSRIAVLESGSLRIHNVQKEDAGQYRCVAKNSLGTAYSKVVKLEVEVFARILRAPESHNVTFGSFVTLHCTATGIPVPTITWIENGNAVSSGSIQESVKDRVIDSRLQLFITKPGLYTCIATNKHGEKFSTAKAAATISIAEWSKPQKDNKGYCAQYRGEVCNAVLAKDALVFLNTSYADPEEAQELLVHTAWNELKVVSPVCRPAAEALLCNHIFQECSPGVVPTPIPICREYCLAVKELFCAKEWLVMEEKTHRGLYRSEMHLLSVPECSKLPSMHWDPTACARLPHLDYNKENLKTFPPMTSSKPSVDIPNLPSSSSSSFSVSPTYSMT
From the text: as §1

human MuSK [3] = molecular target: T3, human MuSK; experiment: Biacore T200, MuSK on chip (200RU), 22.2 nM Fab, dissociation pH 5.5
In short: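 Surface plasmon resonance was run with both human and mouse MuSK immobilized on the sensor chip. Fab association was always performed at pH 7.4 before the dissociation phase. Kinetic parameters were calculated from the binding curves.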

Binder	% Phosphorylation Induced in C2C12 Mouse Assay, Assay 1 [1] [% versus agrin]	% Phosphorylation Induced in C2C12 Mouse Assay, Assay 2 [1] [% versus agrin]	% Phosphorylation Induced in C2C12 Mouse Assay, Assay 3 [1] [% versus agrin]	% Phosphorylation Induced in C2C12 Mouse Assay, Average [1] [% versus agrin]	Kd (mouse MuSK) [pM]	Kd (human MuSK [2]) [pM]	koff (human MuSK [3]) [s⁻¹]
3B2 (antibody, V domains shown, human IgG1 with the LALA mutations (L234A, L235A); produced in HEK293 cells; also called 3B2 mAb; parental 3B2 Ab) VH: ELQLVESGGGLVQPGGSLRLSCAASGFTFDDYGMSWVRQAPGKGLEWVSAIPWNGGSTYYKESVKGRFTISRDNAKKTLYLQMNSLKSEDTAVYYCAKRSGRIAFGALDAWGQGTLVTVSS VL: QAVVTQEPSLSVSPGGTVTLTCGLSSGSVTSSNYPDWYQQTPGQAPRGLIYSTDSRHSGVPSRFSGSISGNKAALTITGAQSEDEADYYCGLYMYSGSKNYVFGGGTKLTVL	74	94	64	77	134	145	
X2 Fab (Fab, V domains shown, Fab format) VH: EVQLVESGGGLVQPGGSLRLSCAASGFTVSSSSIHWVRQAPGKGLEWVASISSSYGSTSYADSVKGRFTISADTSKNTAYLQMNSLRAEDTAVYYCARSEGDRYVSGYMGMDYWGQGTLVTVSS VL: DIQMTQSPSSLSASVGDRVTITCRASQSVSSAVAWYQQKPGKAPKLLIYSASSLYSGVPSRFSGSRSGTDFTLTISSLQPEDFATYYCQQSGVWLITFGQGTKVEIK							0.00034
X3 Fab (Fab, V domains shown, Fab format) VH: EVQLVESGGGLVQPGGSLRLSCAASGFTISSSSIHWVRQAPGKGLEWVASISSSSGYTYYADSVKGRFTISADTSKNTAYLQMNSLRAEDTAVYYCARSWYEMWMSGYFGFDYWGQGTLVTVSS VL: DIQMTQSPSSLSASVGDRVTITCRASQSVSSAVAWYQQKPGKAPKLLIYSASSLYSGVPSRFSGSRSGTDFTLTISSLQPEDFATYYCQQSSSSLITFGQGTKVEIK							0.00225
